The labels stand for the following.
T1: human ASIC1 (human, UniProt P78348 1-528)
T1 sequence: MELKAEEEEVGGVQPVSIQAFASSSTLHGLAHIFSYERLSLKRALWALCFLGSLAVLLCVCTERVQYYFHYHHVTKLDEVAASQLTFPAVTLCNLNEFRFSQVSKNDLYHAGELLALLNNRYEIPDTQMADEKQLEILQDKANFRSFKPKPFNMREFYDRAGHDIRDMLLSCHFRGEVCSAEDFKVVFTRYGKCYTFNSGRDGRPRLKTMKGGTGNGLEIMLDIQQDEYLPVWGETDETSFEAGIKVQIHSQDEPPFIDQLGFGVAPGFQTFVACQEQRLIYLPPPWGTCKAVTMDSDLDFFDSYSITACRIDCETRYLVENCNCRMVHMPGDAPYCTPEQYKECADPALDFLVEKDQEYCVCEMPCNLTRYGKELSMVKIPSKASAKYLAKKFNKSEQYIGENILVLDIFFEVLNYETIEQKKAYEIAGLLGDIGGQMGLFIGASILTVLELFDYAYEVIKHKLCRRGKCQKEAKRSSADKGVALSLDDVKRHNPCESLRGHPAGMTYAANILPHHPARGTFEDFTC

T2: human ASIC3 (human, UniProt Q9UHC3 1-531)
T2 construct: whole, on cells; Expressed on 3T3 cells (3T3/hASIC3) or HEK293 cells (HEK/hASIC3-QCells); also called hASIC3
T2 sequence (looked up): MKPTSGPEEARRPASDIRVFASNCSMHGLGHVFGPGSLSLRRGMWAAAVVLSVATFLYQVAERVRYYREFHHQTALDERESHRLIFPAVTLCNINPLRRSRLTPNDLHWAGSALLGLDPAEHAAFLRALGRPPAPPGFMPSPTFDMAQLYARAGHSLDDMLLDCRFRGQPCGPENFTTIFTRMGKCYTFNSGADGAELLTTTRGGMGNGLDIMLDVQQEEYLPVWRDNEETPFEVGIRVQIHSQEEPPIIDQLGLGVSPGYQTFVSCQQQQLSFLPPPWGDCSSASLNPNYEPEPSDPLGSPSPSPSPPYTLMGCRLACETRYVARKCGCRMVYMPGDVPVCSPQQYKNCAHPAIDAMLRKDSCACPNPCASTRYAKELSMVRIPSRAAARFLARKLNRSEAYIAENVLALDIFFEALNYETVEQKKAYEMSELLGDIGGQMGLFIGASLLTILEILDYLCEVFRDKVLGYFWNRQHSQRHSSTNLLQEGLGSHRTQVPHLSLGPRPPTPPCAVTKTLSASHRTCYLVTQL

T3: human ASIC1/ASIC3 channels (co-expressed human ASIC1a and human ASIC3) (human, UniProt Q9UHC3 1-531)
T3 construct: whole, on cells; 3T3 cells co-expressing both subunits; also called 3T3/hASIC1/3; 3T3-hASIC1/ASIC3
T3 sequence 1: T1 sequence
T3 sequence 2: T2 sequence (looked up)

B1: H4H6364P (antibody, human IgG4, V domains shown)
VH: EVQLVESGGGLVQSGGSLRLSCAASGFTFSRYWMSWVRQAPGKGLEWVANIKQDGSEKDYVDSVKGRFTISRDNTKSSLFLQMNSLRAEDTAVYYCAKERWNWNFFDYWGQGTLVTVSS
VL: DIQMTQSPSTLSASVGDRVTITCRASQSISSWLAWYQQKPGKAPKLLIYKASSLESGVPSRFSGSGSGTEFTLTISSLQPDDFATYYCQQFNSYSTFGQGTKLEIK
B2: H3M6715N (antibody, V domains shown)
VH: EELVLESGGGLVQPGGSLRLSCAASGFMFSTYAMSWVRQAPGKGLEWVSLISGRDGNTYYADSVKGRFTISRDNSRNTLYLQLNSLRAEDTALYYCAKDTAVVPGYGMDVWGQGTTVTVSS
VL: DIQMTQSPATLSASVGDRVTITCRASQTISNWLAWYQQRPGKAPKLLIYKASSLETGVPSRFSGSGSGTEFTLTISSLQPDDFASYYCQQYNSYSWTFGQGTKVEIK
notes: Chimeric: human variable, mouse constant domains; H3M prefix marks the Fc, isotype not spelled out
B3: H1M6712N (antibody, mouse IgG1, V domains shown)
VH: QVQLVQSGAEVKKPGASMKVSCKASGYTFTIYDINWVRQATGQGLEWMGWMNPRSGSTGYSQKFQGRVTMTRNTSINTAFMELSSLRSDDTAVYYCVRGQLVLGYWGQGTLVTVSS
VL: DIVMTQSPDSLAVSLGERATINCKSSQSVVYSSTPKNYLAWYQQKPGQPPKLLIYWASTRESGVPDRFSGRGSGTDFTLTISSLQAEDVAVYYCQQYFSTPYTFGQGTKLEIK
B4: H4H6363P (antibody, V domains shown)
VH: EVQLLESGGGLVQPGGSLRLSCAASGFIFTNYAMTWLRQAPGKGLEWVSALSGSGGTTYYADSVKGRFTTSRDNSKNTLYLQMNSLRAEDTAVYYCAKDPHYYGSGNDYFYYYGLDVWGRGTTVTVSS
VL: not shown
B5: H4H6721N2 (antibody, human IgG4, V domains shown)
VH: EVQLLASGGGLVQPGGSLRLSCAASGFTFSSFAMSWVRQAPGKGLEWVSGISGSGVSTYYADSVKGRFTISRDNSKNTLYLQMNSLRAEDTAAYYCAKEAYKWQPWGQGTLVTVSS
VL: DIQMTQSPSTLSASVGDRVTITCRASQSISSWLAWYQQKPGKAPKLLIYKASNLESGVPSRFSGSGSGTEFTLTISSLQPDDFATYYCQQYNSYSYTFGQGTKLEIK
B6: H3M6713N (antibody, V domains shown)
VH: B2 VH with N57S, N74I, Q82H, L93V, M108L
VL: B2 VL
notes: as for B2
B7: H3M6760N (antibody, V domains shown)
VH: B2 VH with E2D, L3R, T31S, L93V
VL: B2 VL with A9S, T28S, T56S
notes: as for B2
B8: H4H7101N (antibody, human IgG4, V domains shown)
VH: B5 VH with P14T, V56G, T110I, L111R
VL: DIQMTQSPSTLSASVGDRVTITCRASQSISSWLAWYQQKPGKAPNLLIYKTSNLESGVPSRFSGSGSGTEFTLTISSLQPDDFATYYCQQYNSYSYTFGQGTKLEIK

Substitutions are numbered along the chain they refer to. Names may count otherwise.

The target of one experiment is T1, human ASIC1. In words: cell-based or functional assay.
For the molecule B1, the “Current inhibition (%) at 100 nM antibody, Q-Patch, pH 6.0” value turned out to be 0%.
Same read-out and setting: the value for B2 was 30%; that for B3 was 0%.
As for B4, the “Current inhibition (%) at 100 nM antibody, Q-Patch, pH 6.0” value worked out at 0%.

In the next experiment the target is T2, human ASIC3. Nature of the experiment: FACS, 3T3/hASIC3 cells, 10 nM antibody. The source says: (§1) For these experiments, four cell lines were constructed: (a) a mouse fibroblast 3T3 cell line stably transfected to overexpress full length human ASIC3 (3T3/hASIC3; amino acids 1-531 of NCBI accession number NP_{—}004760.1), (b) a 3T3 cell line stably transfected to co-express full length human ASIC1a and human ASIC3 (3T3/hASIC1/3; amino acids 1-528 of NCBI accession number NP_{—}001086.2 and amino acids 1-531 of NCBI accession number NP_{—}004760.1), (c) […] a stably transfected 3T3 cell line expressing the full-length mouse ASIC3 channel (3T3/mASIC3; amino acids 1-530 of NCBI accession number NP_{—}892045.2), and (d) a 3T3 cell line stably transfected to co-express full length mouse ASIC1a and mouse ASIC3 (3T3/mASIC1/3; amino acids 1-526 of NCBI accession number NP_{—}033727 and amino acids 1-530 of NCBI accession number NP_{—}892045.2). Antibody binding was determined using flow cytometry (FACS).
(§2) To perform the FACS binding experiments, adherent cells were collected with cold Millipore Accutase 3-5 minutes, spun and resuspended in ice-cold FACS buffer (PBS, 2% HI-FBS and 0.09% Na-azide). Anti-ASIC1 antibody at final concentrations of 10 nM was added for 20-30 minutes on ice. Cells were washed with 900 μL ice-cold FACS buffer, spun, and resuspended in 100 μL ice-cold FACS buffer. A secondary antibody which recognizes human Fc (Jackson Immuno Research, #109-136-098) and is conjugated to allophycocyanin, was then added to the cell mixture at a final concentration of 2.5 ug/mL. After incubating for 20 minutes on ice, the cells were washed and resuspended in FACS buffer, then sorted and analyzed on a flow cytometer (FACSCanto II, BD Biosciences, San Jose, Calif.) to determine relative binding by the candidate antibodies to the tested cell lines. Histograms of cells stained with anti-ASIC1 antibodies were compared with those of cells stained with secondary antibody alone. Percentage of ASIC1 signal over secondary antibody alone was calculated using FlowJo software (Tree Star, Ashland, Oreg.).
(In flow cytometry, cells or beads pass a laser one at a time.)
Regarding B1, the binding result is listed as “binds”.
For the molecule B3, the binding result was “binds”.
Turning to B4, the binding result is “binds”.

Another experiment deals with T1, human ASIC1. In words: cell-based or functional assay. This is another data set of the same source.
In the case of B5, the “apparent IC50, human ASIC1 current, Q-Patch” value is less than 1 nM.

For another experiment, the target named is T2, human ASIC3. Nature of the experiment: FACS, 3T3/hASIC3 cells.
From the text: as §1, §2
For the molecule B2, the binding result is given as “no binding (tested: 10 nM; gated lower than 1%)”.
Regarding B6, the binding result was “no binding (tested: 10 nM; gated lower than 1%)”.
Still for that read-out and setting: in the case of B7 it was “no binding (tested: 10 nM; gated lower than 1%)”; in that of B5, “no binding (tested: 10 nM; gated lower than 1%)”; in that of B8, “no binding (tested: 10 nM; gated lower than 1%)”.

In the next experiment the target is T3, human ASIC1/ASIC3 channels …. In words: FACS, 3T3/hASIC1/3 cells, 10 nM antibody.
From the text: as §1, §2
On to B1, for which the binding result is given as “binds”.
The same measure, in the same setting: in the case of B2 it was “binds”; in that of B6, “binds”.
Consider B7, for which the binding result was “binds”.
Consider B3, for which the binding result is listed as “binds”.
Regarding B5, the binding result is “binds”.
As to B8, the binding result is recorded as “binds”.
As to B4, the binding result is given as “binds”.

A further experiment has as its target T1, human ASIC1. In words: FACS titration, 3T3/hASIC1 cells. The protocol:
To perform the FACS binding experiments, adherent cells were collected using 1 mM EDTA in PBS, then washed, and re-suspended in cold PBS containing 5% FBS. For each binding experiment, each anti-ASIC1 antibody ([…] or ND7 cells) was added to 250,000 cells in 500 μL of PBS with 5% FBS. After incubation for 20 minutes at room temperature, a secondary antibody which recognizes human Fc (Cat. No. 109-136-098, Jackson ImmunoResearch Laboratories, Inc., West Grove, Pa.) or mouse Fc (Cat. No. 550826, BD Biosciences, San Jose, Calif.) and is conjugated to allophycocyanin, was then added to the cell mixture at a final concentration of 13.3 nM. After incubating for 20 minutes on ice, the cells were washed and resuspended in PBS containing 5% FBS, then sorted and analyzed on a flow cytometer (FACSCalibur, BD Biosciences, San Jose, Calif.) to determine relative binding by the candidate antibodies to the tested cell lines. Histograms of cells stained with anti-ASIC1 antibodies were compared with those of cells stained with secondary antibody alone. Percentage of ASIC1 signal over secondary antibody alone was calculated using FlowJo software (Tree Star, Ashland, Oreg.).
Broadly, the EC50 is the concentration at which the effect is half-maximal. Consider B1, for which the midpoint of the response, the EC50, lay at 1.5 nM.
Regarding B2, the EC50 stood at 0.072 nM.
B6 returned an EC50 of 0.215 nM.
Consider B7, for which the EC50 is 0.853 nM.
Take B3: the EC50 is less than 0.1 nM.
Consider B5, for which a half-maximal effect (EC50) was put at 1.7 nM.
Same read-out and setting: the value for B4 was 0.836 nM.

The target in the next experiment is T1, human ASIC1. In words: cell-based or functional assay. This is another data set of the same source.
As for B2, the “FLIPR Dose Curve, pH 5.0 % Block” value worked out at 10%; the “FLIPR Dose Curve, pH 5.5 % Block” value is 39%; the “FLIPR Dose Curve, pH 5.5 IC50” value came out at 0.1 nM.
As for B6, the “FLIPR Dose Curve, pH 5.0 % Block” value was found to be 23%; the “FLIPR Dose Curve, pH 5.5 % Block” value was found to be 63%; the “FLIPR Dose Curve, pH 5.5 IC50” value was determined as 0.2 nM.
Consider B7, for which the “FLIPR Dose Curve, pH 5.0 % Block” value came out at 56%; the “FLIPR Dose Curve, pH 5.0 IC50” value was determined as 1 nM; the “FLIPR Dose Curve, pH 5.5 % Block” value is 71%; the “FLIPR Dose Curve, pH 5.5 IC50” value came out at 0.9 nM.
On to B3, for which the “FLIPR Dose Curve, pH 5.0 % Block” value was determined as 10%; the “FLIPR Dose Curve, pH 5.5 % Block” value was 64%; the “FLIPR Dose Curve, pH 5.5 IC50” value stood at 6 nM.

The values above are taken from patent US20140056907A1 (Regeneron, published 2014).
